We go through two molecules from patent publication US20170088628A1, “Compositions and Methods for Identifying B Cell Malignancies Responsive to B Cell Depleting Therapy” (MedImmune, LLC, priority 2014, published 2017).

Data set [1] has as its system Chronic lymphocytic leukemia. Kind of data set: CP-1019, Chronic lymphocytic leukemia patients treated with MEDI-551 or Rituximab+Bendamustine. Type of data set: in vivo, human. The note with it: of 22 MEDI-551-treated / 12 Rituximab-treated patients. How it is done: miR-629 expression levels were measured in baseline peripheral blood mononucleated cell (PBMC) samples from Chronic lymphocytic leukemia patients treated with MEDI-551 or Rituximab+Bendamustine (CP-1019). • 22 MEDI-551-treated patients (10 CR/PR; 3 PD; 4 SD) • 12 Rituximab-treated patients (6 CR/PR; 2 PD; 2 SD)

Data set [2] has as its system Karpas 422 cells expressing miR-629. The data set is described as follows: in vitro ADCC in miR-629 over-expressing cells. The note with it: miR-629 over-expression vs vector control. It is filed as cell-based, human. The procedure:
FIGS. 12A and 12B are graphs. […] LDH release has been a known prognostic factor in lymphoma for many years and is measured routinely in clinical practice. […] Therefore, it is likely that miR-629 expression levels are related to the aggressiveness of the tumor. This could, in part, explain the correlation between miR-629 and response to MEDI-551.
The diffuse large B-cell lymphoma cell line Karpas-422 was transduced with a lentiviral vector over-expressing miR-629 or a scrambled miRNA control (Open Biosystems, Huntsville, Ala.) at an MOI of 2-20. Transduced cells were expanded for 1-2 weeks. Utilizing RFP, cells were sorted by fluorescence-activated cell sorting (FACS) into high miR-629 and low miR-629 populations. Clones were also generated using the limiting dilution method. Over-expression of miR-629 was evaluated by TaqMan QPCR.

In data set [3] the test system is Relapsed or Refractory Advanced B-Cell Malignancies. The data set is described as follows: Clinical Trial No. CP204, Phase 1 dose-escalation study of MEDI-551 as a single agent. Type of data set: in vivo, human. How it is done:
miR-629 expression levels were measured in baseline whole blood samples from diffuse large B cell lymphoma (DLBCL), follicular lymphoma (FL), and Chronic lymphocytic leukemia (CLL) patients treated with an anti-CD19 antibody treatment as a single agent in Clinical Trial No. CP204, A Phase 1, Dose-escalation Study of MEDI-551, a Humanized Monoclonal Antibody Directed Against CD19, in Adult Subjects With Relapsed or Refractory Advanced B-Cell Malignancies.

For a further data set, the system named is RL. The data set is described as follows: in vitro ADCC assay. It is filed as cell-based, human.
For data set [4] the following is noted: afucosylated mAb relative to mAb anti-CD19-2; cited from earlier work.
For a further data set, the system named is Oci-Ly-19. The data set is described as follows: in vitro ADCC assay. It is filed as cell-based, human. The following applies: Oci-Ly-19, in vitro ADCC.
The test system of another data set is Karpas-422. Kind of data set: in vitro Antibody-dependent cellular cytotoxicity (ADCC) assay. Type of data set: cell-based, human. The note with it: Karpas-422, in vitro ADCC.
For the next data set, the target named is FccRIIIA (Homo sapiens, UniProt P08637). The following applies: afucosylated mAb relative to mAb anti-CD19-2; cited from earlier work.
FccRIIIA, sequence (P08637 17-254): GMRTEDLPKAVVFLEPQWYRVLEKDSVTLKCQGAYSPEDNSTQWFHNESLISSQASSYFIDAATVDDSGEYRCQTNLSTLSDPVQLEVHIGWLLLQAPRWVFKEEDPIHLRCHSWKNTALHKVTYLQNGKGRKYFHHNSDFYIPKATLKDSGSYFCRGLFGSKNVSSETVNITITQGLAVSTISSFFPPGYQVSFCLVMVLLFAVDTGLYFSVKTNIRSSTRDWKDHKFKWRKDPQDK
The subject of another data set is Toledo cell lines. The data set is described as follows: in vitro ADCC assay. Type of data set: cell-based, human.
Data set [5] concerns DB (diffuse large cell lymphoma). The data set is described as follows: in vitro ADCC assay. Type of data set: cell-based, human.
In another data set the test system is SU-DHL-6. The data set is described as follows: ADCC assay after miR-629 over-expression. It is filed as cell-based, human. The following applies: SU-DHL-6, miR-629 over-expressed (miR-629 mimic). The procedure:
(§1) FIGS. 14A-D are graphs showing the results of an antibody dependent cytotoxicity (ADCC) assay. miR-629 was overexpressed in the specified cell type, and the cells were then treated with an anti-CD19 antibody (MEDI551).
(§2) The effect of altering miR-629 on sensitivity to treatment with an anti-CD19 antibody (MEDI551) was explored. Human leukemia and lymphoma cell lines Daudi, Toledo, and RL were obtained from American Type Culture Collection (ATCC); Karpas 1106P, Karpas 422, OCI-Ly-19, MEC2 were obtained from Deutsche Sammlung von Mikroorganismen und Zellkulturen (DSMZ, Germany). Cell lines were transfected with […] of a miR-629 mimic (Karpas 1106P, Karpas 422, Daudi, MEC2, OCI-Ly-19, SU-DHL-6, and Toledo), a miR-629 hairpin inhibitor (RL and ARH-77), or respective negative control oligonucleotides (all from Dharmacon) using PrimeFect (Lonza) for 24 hours. CD19 and CD20 surface expression was determined by flow cytometry (LSRII, BD Biosciences) using their respective fluorescently labeled monoclonal antibodies. Surface expression is reported as mean fluorescent intensity (MFI) and was averaged for untransfected as well as miR-629 and negative control transfected cells.

The next data set deals with MEC-2. Kind of data set: ADCC assay after miR-629 over-expression. It is filed as cell-based, human. The following applies: MEC-2, miR-629 over-expressed (miR-629 mimic). The procedure: as §1, §2
A further data set concerns Toledo. Kind of data set: ADCC assay after miR-629 over-expression. It is filed as cell-based, human. The note with it: miR-629 over-expressed (miR-629 mimic). How it is done: as §1, §2
A further data set concerns Daudi. The data set is described as follows: ADCC assay after miR-629 over-expression. It is filed as cell-based, human. The following applies: miR-629 over-expressed (miR-629 mimic). How it is done:
as §1, §2

For data set [6], the system named is diffuse large B-cell lymphoma cell lines. The data set is described as follows: in vitro ADCC assays, high versus low sensitivity cell lines. It is filed as cell-based, human. The following applies: in other cases 1000-fold or more. From the text:
The following microRNAs had significant differences: miR-629; miR-99b; miR-let-7e; miR-15a; and miR-29a.

A further data set concerns ARH-77. The data set is described as follows: in vitro ADCC assay. The following applies: ARH-77, in vitro ADCC. It is filed as cell-based, human.
Another data set has as its system SUD-HL-6. The data set is described as follows: in vitro ADCC assay. The note with it: SUD-HL-6, in vitro ADCC. Type of data set: cell-based, human.

Take “Rituximab: anti-CD20 antibody therapy used as comparator [reference compound]”: in [1], the “CR/PR, number of patients” value is reported as 6 and the “PD, number of patients” value was 2.

B1: MEDI-551: afucosylated form of the CD19 mAb anti-CD19-2, developed by humanization and affinity optimization of the HB12b mAb (antibody, chains of the INN, looked up, V domains shown)
VH: EVQLVESGGGLVQPGGSLRLSCAASGFTFSSSWMNWVRQAPGKGLEWVGRIYPGDGDTNYNVKFKGRFTISRDDSKNSLYLQMNSLKTEDTAVYYCARSGFITTVRDFDYWGQGTLVTVSS
VL: EIVLTQSPDFQSVTPKEKVTITCRASESVDTFGISFMNWFQQKPDQSPKLLIHEASNQGSGVPSRFSGSGSGTDFTLTINSLEAEDAATYYCQQSKEVPFTFGGGTKVEIK
modifications: afucosylated
With B1, the “shift in Ec50 for anti-CD19 antibody treatment in in vitro ADCC” value in [2] is given as “slight shift”. Moreover, the “CR/PR (complete or partial response), number of patients” value in data set [3] (Chronic lymphocytic leukemia) amounted to 3; in [3] (diffuse large B-cell lymphoma) it was 5; in [3] (follicular lymphoma) it was 6. In addition, the “PD (progressive disease), number of patients” value stood at 3 in data set [3] (Chronic lymphocytic leukemia), 10 in data set [3] (diffuse large B-cell lymphoma) and 2 in data set [3] (follicular lymphoma). In addition, the “sensitivity to anti-CD19 antibody treatment” value in the data set on RL was “low sensitivity”; with Oci-Ly-19, “high sensitivity”; with Karpas-422 it was “highly sensitive”; in the data set with Karpas-422 (listed as anti-CD19 antibody), “high sensitivity”; with Toledo cell lines it was “high sensitivity”; in data set [5], “low sensitivity”. The “sensitivity to anti-CD19 antibody treatment” value with ARH-77 was “low sensitivity”; in the data set on SUD-HL-6, “high sensitivity”. In data set [4], the ADCC activity result is “enhanced”. Moreover, the “affinity to FccRIIIA” value with FccRIIIA is “increased”. In [1], the “CR/PR, number of patients” value worked out at 10. The “PD, number of patients” value in [1] is reported as 3. Also, the difference in cytotoxicity in the data set with SU-DHL-6 and with Toledo was 15-20% in each case. Further, the “reduced sensitivity to anti-CD19 antibody” value in the data set with MEC-2 and in the data set on Daudi was 15-25% throughout. In addition, the “EC50s for the high sensitivity cell lines lower than the low sensitivity cell lines” value in data set [6] was “at least 100 fold”.
